According to article PMC5099943, “Recombinant L-asparaginase 1 from Saccharomyces cerevisiae: an allosteric enzyme with antineoplastic activity” (Scientific Reports, 2016):

Columns and labels:
purified protein [1] = substrate: NC(=O)C[C@H](N)C(=O)O; assay: purified protein; format: biochemical, Saccharomyces cerevisiae; details: 50 mM Tris-HCl pH 8.0, 37 °C, no L-glutamine, sigmoidal, nH 2.2 ± 0.3
purified protein [2] = substrate: NC(=O)C[C@H](N)C(=O)O; assay: purified protein; details: 50 mM Tris-HCl pH 8.0, 37 °C, nH 1.1 ± 0.1

| Protein | K0.5 (purified protein [1]) | Vmax (purified protein [1]) | kcat (purified protein [1]) | Km (purified protein [2]) | Vmax (purified protein [2]) | kcat (purified protein [2]) | kcat/Km (purified protein [2]) |
| --- | --- | --- | --- | --- | --- | --- | --- |
| ScASNase1 (L-asparaginase 1) (Saccharomyces cerevisiae S288C) (protein) LPRIKILGTGGTIASKAIDSSQTAGYHVDLTIQDLLDAIPDISKVCDIEYEQLCNVDSKDINEDILYKIYKGVSESLQAFDGIVITHGTDTLSETAFFIESTIDAGDVPIVFVGSMRPSTSVSADGPMNLYQAICIASNPKSRGRGVLVSLNDQISSGYYITKTNANSLDSFNVRQGYLGNFVNNEIHYYYPPVKPQGCHKFKLRVDGKHFKLPEVCILYAHQAFPPAIVNLVADKYDGIVLATMGAGSLPEEVNETCMKLSLPIVYSKRSMDGMVPIANVPKKGSKEDNLIASGYLSPEKSRILLQLCLAGNYTLEEIKHVFTGVYGG | 75 ± 27 µM | 0.042 µmol/min | 217 ± 14 s⁻¹ |  |  |  |  |
| EcASNase2 (L-ASNase type II from Escherichia coli, commercial) (Escherichia coli K-12) (protein) LPNITILATGGTIAGGGDSATKSNYTVGKVGVENLVNAVPQLKDIANVKGEQVVNIGSQDMNDNVWLTLAKKINTDCDKTDGFVITHGTDTMEETAYFLDLTVKCDKPVVMVGAMRPSTSMSADGPFNLYNAVVTAADKASANRGVLVVMNDTVLDGRDVTKTNTTDVATFKSVNYGPLGYIHNGKIDYQRTPARKHTSDTPFDVSKLNELPKVGIVYNYANASDLPAKALVDAGYDGIVSAGVGNGNLYKSVFDTLATAAKTGTAVVRSSRVPTGATTQDAEVDDAKYGFVASGTLNPQKARVLLQLALTQTKDPQQIQQIFNQY |  |  |  | 23 ± 5 µM | 0.032 µmol/min | 134 s⁻¹ | 5.8e+06 M⁻¹ s⁻¹ |
